Test [1] has as its target T1, human PTPRG on the cell surface (U937 cells, HEL cells) (human, UniProt P23470 20-1445).
T1 construct: Endogenous PTPRG of human AML cell lines
The test can be described thus: flow cytometry on whole U937 cells, screen of the 28 clones (Ctrl row = 0); PTPRG is named as the antigen on U937 cells only in the later examples.

For test [2], the target named is T2, C-terminal domain (CTD) of human PTPRG (amino acid residues 349~736 of human PTPRG) (human, UniProt P23470 349-736).
T2 construct: also called hPTPRG-CTD; human PTPRG carboxyl domain
T2 sequence: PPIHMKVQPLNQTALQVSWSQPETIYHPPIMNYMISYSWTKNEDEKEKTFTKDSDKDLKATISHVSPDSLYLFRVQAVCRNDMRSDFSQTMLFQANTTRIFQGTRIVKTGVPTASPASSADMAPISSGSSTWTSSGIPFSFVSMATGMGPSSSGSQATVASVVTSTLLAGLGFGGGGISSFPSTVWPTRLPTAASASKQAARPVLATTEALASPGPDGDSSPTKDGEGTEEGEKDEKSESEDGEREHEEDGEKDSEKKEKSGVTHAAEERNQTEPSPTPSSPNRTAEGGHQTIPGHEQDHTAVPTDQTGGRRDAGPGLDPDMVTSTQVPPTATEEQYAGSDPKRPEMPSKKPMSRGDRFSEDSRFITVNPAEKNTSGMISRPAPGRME
The test can be described thus: ELISA, one condition per Fab and antigen; y axis 0 to 1.8 without name or unit. A general note: An ELISA detects its analyte on a solid surface through an enzyme-linked reagent.

Test [3] has as its target T3, mouse PTPRG ECD (amino acid residues 20-733 of mouse PTPRG) fused to hFc (mouse, UniProt Q05909 20-733).
T3 construct: Produced in-house; also called mPTPRG-ECD; Mouse PTPRG-ECD-hFc; not shown: human Fc (hFc)
T3 sequence: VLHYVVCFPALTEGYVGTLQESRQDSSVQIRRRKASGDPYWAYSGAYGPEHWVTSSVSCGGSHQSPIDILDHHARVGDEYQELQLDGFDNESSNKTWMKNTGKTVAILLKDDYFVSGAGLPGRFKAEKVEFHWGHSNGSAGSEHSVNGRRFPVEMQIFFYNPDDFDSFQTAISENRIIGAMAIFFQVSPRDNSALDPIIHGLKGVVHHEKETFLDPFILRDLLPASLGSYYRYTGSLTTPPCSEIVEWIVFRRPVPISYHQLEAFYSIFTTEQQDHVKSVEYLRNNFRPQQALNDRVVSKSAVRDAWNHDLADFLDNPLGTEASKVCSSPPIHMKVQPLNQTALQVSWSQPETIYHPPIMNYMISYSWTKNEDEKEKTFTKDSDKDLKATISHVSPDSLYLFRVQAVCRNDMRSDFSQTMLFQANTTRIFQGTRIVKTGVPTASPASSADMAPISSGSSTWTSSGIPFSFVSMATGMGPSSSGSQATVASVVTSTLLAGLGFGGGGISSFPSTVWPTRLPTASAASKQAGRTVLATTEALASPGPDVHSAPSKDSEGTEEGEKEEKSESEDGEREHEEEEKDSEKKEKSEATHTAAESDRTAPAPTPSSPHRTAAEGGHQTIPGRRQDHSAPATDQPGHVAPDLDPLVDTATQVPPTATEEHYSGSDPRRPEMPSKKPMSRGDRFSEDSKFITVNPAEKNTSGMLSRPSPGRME
The description is as above.

Test [4] deals with T1, human PTPRG on the cell surface (U937 …). Description: flow cytometry on whole HEL cells, screen of the 28 clones (Ctrl row = 0); PTPRG is named as the antigen on HEL cells only in the later examples. For orientation: A flow cytometer gives signals particle by particle.

T1 sequence (P23470 20-1445): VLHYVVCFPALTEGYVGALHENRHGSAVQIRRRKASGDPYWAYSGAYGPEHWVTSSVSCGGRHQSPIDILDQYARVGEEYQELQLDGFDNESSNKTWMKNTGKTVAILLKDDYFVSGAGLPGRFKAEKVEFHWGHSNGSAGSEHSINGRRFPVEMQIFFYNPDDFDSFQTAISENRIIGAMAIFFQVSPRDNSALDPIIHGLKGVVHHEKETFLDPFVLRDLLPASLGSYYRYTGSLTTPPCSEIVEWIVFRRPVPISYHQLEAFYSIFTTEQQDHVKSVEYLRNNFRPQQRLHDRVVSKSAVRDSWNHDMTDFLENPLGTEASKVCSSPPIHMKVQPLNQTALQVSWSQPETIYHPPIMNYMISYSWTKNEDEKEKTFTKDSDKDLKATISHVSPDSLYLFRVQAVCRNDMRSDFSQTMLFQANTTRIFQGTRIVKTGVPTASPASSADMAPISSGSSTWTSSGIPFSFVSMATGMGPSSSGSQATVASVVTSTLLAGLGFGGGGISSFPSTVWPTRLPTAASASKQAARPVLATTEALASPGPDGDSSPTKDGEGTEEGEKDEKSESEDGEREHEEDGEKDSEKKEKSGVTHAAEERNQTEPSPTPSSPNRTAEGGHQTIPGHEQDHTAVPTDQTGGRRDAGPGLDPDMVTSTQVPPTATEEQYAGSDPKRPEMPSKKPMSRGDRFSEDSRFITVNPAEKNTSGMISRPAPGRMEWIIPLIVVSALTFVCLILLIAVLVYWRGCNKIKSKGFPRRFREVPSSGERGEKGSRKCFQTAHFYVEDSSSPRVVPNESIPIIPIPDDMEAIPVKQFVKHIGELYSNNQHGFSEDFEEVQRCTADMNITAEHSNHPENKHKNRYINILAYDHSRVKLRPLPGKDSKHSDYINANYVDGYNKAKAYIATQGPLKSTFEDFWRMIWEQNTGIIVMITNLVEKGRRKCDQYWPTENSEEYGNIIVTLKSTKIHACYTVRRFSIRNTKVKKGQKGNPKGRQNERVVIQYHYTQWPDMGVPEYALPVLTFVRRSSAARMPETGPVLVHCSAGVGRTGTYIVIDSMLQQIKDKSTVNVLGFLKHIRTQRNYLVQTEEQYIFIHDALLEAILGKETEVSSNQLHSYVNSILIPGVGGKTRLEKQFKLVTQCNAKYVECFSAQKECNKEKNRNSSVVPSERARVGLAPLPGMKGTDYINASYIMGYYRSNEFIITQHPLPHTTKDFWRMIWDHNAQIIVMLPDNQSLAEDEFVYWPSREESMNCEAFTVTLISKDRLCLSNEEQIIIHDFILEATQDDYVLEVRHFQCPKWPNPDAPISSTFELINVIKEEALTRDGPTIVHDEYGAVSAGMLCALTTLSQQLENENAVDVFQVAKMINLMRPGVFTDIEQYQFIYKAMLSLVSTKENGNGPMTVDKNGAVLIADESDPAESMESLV

B1: Fab_240 (Fab, V domains shown)
VH: AQSLEESGGRLVTPGTPLTLTCTVSGFSLSAYAMSWVRQAPGKGLEWIGIISSYGNTYYATWAKGRFTISKTSTTVDLKITSPTTEDTATYFCARGDYGNGMSIWGPGTLVTVSS
VL: SFVLTQPASVQVNLGQTVSLTCTADTLSRRYASWYQQKPGQAPVLLIYRDTRRPSGVPDRFSGSSSGNTATLTISGAQAGDEADYYCATSDGSGSSYQCVFGGGTQLTVTG
notes: Chimeric rabbit/human Fab; also called P240; clone 240
Consider B1, for which the entries for the “flow cytometry binding value (the table prints no name or unit)” value in test [1] and in test [4] were 92.7 and 17.5, respectively. Also, the binding result in test [2] is on record as “no binding”; in test [3], “binds”.

B2: Fab_2861 (Fab, V domains shown)
VH: AQSVEESGGRLVTPGTPLTLTCTVSGIDLSSYAMGWVRQAPGKGLEYIGIIVSDGRTYYTSWAKGRFTISKTSTTVDLKMTSPTTEDTATYFCAREGYGYYFDIWGPGTLVTISS
VL: SFVLTQPASVQVNLGQTVSLTCTADTLSRRYASWYQQKPGQAPVLLIYRDTSRPSGVPDRFSGSSSGNTATLTISGAQAGDEADYYCATADGSGSSYQFVFGGGTQLTVTG
notes: Chimeric rabbit/human Fab; also called P2861; clone 2861
On to B2, for which the “flow cytometry binding value (the table prints no name or unit)” value in test [1] came to 85; in test [4], 14.5. In addition, the binding result was “no binding” in test [2] and “binds” in test [3].

B3: Fab_1707 (Fab, V domains shown)
VH: AQSLEEFGGGLIKPGGTLTLTCTASGFTISSYDMSWVRQAPGSGLEWIGTMAYGGDTYHASWAKSRSTITRDTNLNTVTLKMTSLTVADTATYFCARDVGSGHYYDDMYLWGPGTLVTVSS
VL: SFVLTQPASVQVNFGQTVSLTCTADTLSRRYASWYQQKPGQAPVLLIYRDTSRPSGVPDRFSGSSSGNTATLTISGAQAGDEADYYCATGDGSGSSYNYVFGGGTQLTVTG
notes: Chimeric rabbit/human Fab; also called P1707
In the case of B3, the results for the “flow cytometry binding value (the table prints no name or unit)” value in test [1] and in test [4] were 92 and 16.9, respectively. The figures for the binding result in test [2] and in test [3] were “no binding” and “binds”, respectively.

B4: Fab_17 (Fab, V domains shown)
VH: AQSLEEFGGRLATPGTPLTLTCTASGFSLGTYSMSWVRQAPGKGLEWIGTIGGRGDAYYASWAKGRFTISRTSTTVDLKMTSLATEDTATYFCVRENYGYAFDIWGPGTLVTISS
VL: SFVLTQPASVQVNLGQTVSLTCTADTLSRRYASWYQQKPGQAPVLLIYRDTSRPSGVPDRFSGSSSGNTATLTISGAQAGDEADYYCATSDGSGSSYQCVFGGGTQLTVTG
notes: Chimeric rabbit/human Fab; also called P17; clone 17
Regarding B4, the results for the “flow cytometry binding value (the table prints no name or unit)” value in test [1] and in test [4] were 87.5 and 15.8, respectively. Besides, the binding result in test [2] is “no binding”; in test [3], “binds”.

B5: Fab_2653 (Fab, V domains shown)
VH: QEQLEESGGRLVTPGTPLTLTCTASGFSLSTYAMTWVRQAPGKGLEWIGIIDRYGYTYYANWARGRFTISKTSTTVDLKITSPTTEDTATYFCARDLPGYNVGTYFNMWGPGTLVTISS
VL: SFVLTQPASVQVNLGQTVSLTCTADTLSRRYASWYQQKPGQAPVLFIYRDTSRPSGVPDRFSGSSSGSTATLTISGAQAGDEADYYCATSDGSGSSYQFVFGGGTQLTVTG
notes: Chimeric rabbit/human Fab; also called P2653; clone 2653
With B5, the entries for the “flow cytometry binding value (the table prints no name or unit)” value in test [1] and in test [4] were 91.4 and 13.6, respectively. Also, the values for the binding result in test [2] and in test [3] were “no binding” and “binds”, respectively.

B6: Fab_1187 (Fab, V domains shown)
VH: AQSVEESGGRLVTPGTPLTLTCTVSGIDLSSYAMSWVRQAPGKGLEWIGVIDGSGSTWYANWVKGRFTISKTTTVDLKITSPTTEDTATYFCAREDYGSETIDFNIWGPGTLVTVSS
VL: SFVLTQPASVQVNLGQTVSLTCTADTLSRRYASWYQQKPGQAPVLLIYRDTRRPSGVPDRFSGSSSGNTATLTISGAQAGDEADYYCATSDGSGSSYQYVFGGGTQLTVTG
notes: Chimeric rabbit/human Fab; also called P1187; mAb_1187
B6: the “flow cytometry binding value (the table prints no name or unit)” value in test [1] worked out at 29.3; in test [4] it was 10.7.

B7: Fab_3208 (Fab, V domains shown)
VH: AQSVKESEGGLFKPTDTLTLTCTVSGFSLSSYAISWVRRAPGNGLEWIGAIAGYGDAYYASWAKSRSTITRNTNENTVTLKMTSLTAADTATYFCARDDYNVDTGIWGPGTLVTISS
VL: SFVLTQPASVQVNLGQTVSLTCTADTLSRRYASWYQQKPGQAPVLLIYRDTSRPSGVPDRFSGSSSGNTATLTISGAQAGDEADYYCATGDGSGSSYQYVFGGGTQLTVTG
notes: Chimeric rabbit/human Fab; also called P3208; clone 3208
On to B7, for which the entries for the “flow cytometry binding value (the table prints no name or unit)” value in test [1] and in test [4] were 92.7 and 17.1, respectively. Besides, the binding result in test [2] was “no binding”; in test [3], “binds”.

B8: Fab_2388 (Fab, V domains shown)
VH: QEQLKESGGGLFKPTDTLTLTCTVSGFSLSNYAISLVRQPPGNGLEWIGAIDAGGVTYYASWAKSRSTITRNTNLNTVTLKMTSLTAADTATYFCAREEWSSSSGLYFSIWGPGTLVTISS
VL: SFVLTQPASVQVNLGQTVSLTCTADTLSRRYASWYQQKPGQAPVLLIYRDTSRPSGVPDRFSGSSSGNTATLTISGAQAGDEADYYCATSDGSGSSYLYVFGGGTQLTVTG
notes: Chimeric rabbit/human Fab; also called P2388; clone 2388
For B8, the “flow cytometry binding value (the table prints no name or unit)” value stood at 90.9 in test [1] and 15 in test [4].

B9: Fab_28 (Fab, V domains shown)
VH: AQSVEESGGRLVTPGIPLTLTCTVSGFSLNNYAMSWVRQAPGKGLEWIGMIDSGGAAYYATWARGRFTISRTSTTVDLKITSPTTEDTATYFCARELSSLYGAFDPWGPGTLVTVSS
VL: SFVLTQPASVQVNLGQTVSLTCTADTLSRRYASWYQQKPGQAPVLLIYRDTSRPSGVPDRFSGSSSGNTATLTISGAQAGDEADYYCATSDGSGSSYQCVFGGGTQLTVTG
notes: Chimeric rabbit/human Fab; also called P28; clone 28
For B9, the “flow cytometry binding value (the table prints no name or unit)” value came to 87.5 in test [1] and 15.8 in test [4]. Further, the binding result in test [2] was “no binding”; in test [3], “binds”.

The values above are taken from US20260265410A1 (UNIVERSITY OF FLORIDA RESEARCH FOUNDATION, published 2026).
